From publication PMC11367644, “Structural basis for TNIP1 binding to FIP200 during mitophagy” (The Journal of Biological Chemistry, 2024)
Read-outs that look alike come from different tables or passages of the source. One block for each molecule: values may come before it. Square brackets hold non-standard residues; d marks the D form. Ends that are not written are not given here. Peptide text beside a SMILES is read from it. pS = N[C@@H](COP(=O)(O)O)C(=O)O

How the values were obtained:
[1] = test system: FIP200 claw domain / p-CCPG1 FIR2 complex; assay: Competitive fluorescence polarization: displacement of FITC-pCCPG1 FIR2 from FIP200 claw domain; assay type: binding, human; details: fit of Equation 3 to competitive FP data; FIP200 claw 4 μM, 50 nM FITC-pCCPG1 FIR2, buffer B, triplicate
From the text: Next, we investigated the binding of TNIP1 peptides to FIP200 in distinct states while competing with p-CCPG1 FIR2 peptide. Assuming that in solution, there is a thermodynamic equilibrium as expressed in Equation 1:(1) FIP200−TNIP1_pS123⇆w2u2FIP200⇄w1u1FIP200/p−CCPG1FIR2 where u1 and u2 represent the rates of forming the FIP200/p-CCPG1 FIR2 and FIP200-TNIP1_pS123 binding complexes, respectively, and w1 or w2 is the corresponding dissociation rate, then the probability of forming FIP200/p-CCPG1 FIR2 ( P1 ) can be expressed in the following form:(2) P1=u1w2/w1w2+u1w2+[…]
We further assumed that the binding process is diffusion-controlled, meaning that u1 and u2 are proportional to the concentrations of p-CCPG1 FIR2 and TNIP1_pS123, respectively. In addition, w1 and w2 are determined by the activation barrier in the dissociation free energy profile using the transition state theory. Consequently, the following two relations hold. […]
For competitive FP experiments, FIP200 claw domain at 4 μM and 50 nM FITC-pCCPG1 FIR2 in buffer B were mixed with increasing concentrations of unlabeled TNIP1_FIR^long or TNIP1 FIR_pS123^long peptides, respectively. The samples were measured with the CLARIOsta plate reader with FITC-fluorescence polarization filter set. […]

FIP200 claw domain (WT) = target: T1, FIP200 claw domain (WT) (Homo sapiens, UniProt Q8TDY2); assay: ITC of TNIP1/CCPG1 FIR peptides with FIP200 claw domain WT; details: FIP200 claw WT 0.25 mM, peptide 4 mM, 20 °C, buffer B (50 mM NaH2PO4, 150 mM NaCl, pH 7.0), single binding site model, fitted value ± SD, N.D. = no detectable binding
T1 construct: human FIP200 claw domain1490–1594 was cloned; SUMO (N, cleaved yes); made in house; host or cells: Escherichia coli Rosetta (DE3)
Method: (§1) DNA fragment of human FIP200 claw domain1490–1594 was cloned into a modified pET28a (Novagen) plasmid, which contained an N-terminal SUMO-tag and a ULP1 protease cleavage site. All mutants were generated using a MutanBEST Kit (TaKaRa) and confirmed by DNA sequencing. The proteins were expressed in Escherichia coli Rosetta (DE3) cells (Novagen) cultured in LB medium at 37 °C to A600 = 1.0 and then shifted to 16 °C for 24 h after induction with 0.2 mM IPTG. Bacterial pellets were resuspended in buffer A (50 mM NaH2PO4 and 1 M NaCl, pH 7.0) and lysed by sonication. The crude lysate was then centrifuged at 14,000 rpm for 30 min at 4 °C. The supernatant was applied to a Ni-NTA column (QIAGEN), followed by size-exclusion chromatography using a Superdex 200 (GE Healthcare) column. After cleavage with ULP1 protease overnight at 16 °C to remove the SUMO-tag, an additional purification step was performed with a HiTrap SP FF column. The purified protein was concentrated to ∼20 mg/ml in buffer B (50 mM NaH2PO4, 150 mM NaCl, pH 7.0) and stored at −80 °C.
(§2) ITC assays were performed on a Microcal PEAQ-ITC instrument (Malvern) at 20 °C. The concentrations of proteins were determined spectrophotometrically. […] Thermodynamic data were analyzed with a single binding site model using MicroCal PEAQ-ITC Analysis Software provided by the manufacturer (Malvern).

[2] = target: T2, FIP200 claw domain F1574A (Homo sapiens, UniProt Q8TDY2, F1574A); assay: ITC with FIP200 claw domain mutant F1574A; details: 20 °C, buffer B pH 7.0, N.D. = no detectable binding
T2 construct: human FIP200 claw domain1490–1594 was cloned; SUMO (N, cleaved yes); made in house; host or cells: Escherichia coli Rosetta (DE3)
Method: as §1, §2

[3] = target: T3, FIP200 claw domain Y1564A (Homo sapiens, UniProt Q8TDY2, Y1564A); assay: ITC with FIP200 claw domain mutant Y1564A; details: 20 °C, buffer B pH 7.0, N.D. = no detectable binding
T3 construct: human FIP200 claw domain1490–1594 was cloned; SUMO (N, cleaved yes); made in house; host or cells: Escherichia coli Rosetta (DE3)
Method: as §1, §2

[4] = target: T4, FIP200 claw domain K1569A (Homo sapiens, UniProt Q8TDY2, K1569A); assay: ITC with FIP200 claw domain mutant K1569A; details: 20 °C, buffer B pH 7.0, N.D. = no detectable binding
T4 construct: human FIP200 claw domain1490–1594 was cloned; SUMO (N, cleaved yes); made in house; host or cells: Escherichia coli Rosetta (DE3)
Method: as §1, §2

[5] = target: T5, FIP200 claw domain K1568A (Homo sapiens, UniProt Q8TDY2, K1568A); assay: ITC with FIP200 claw domain mutant K1568A; assay type: binding; details: 20 °C, buffer B pH 7.0, fitted value ± error
T5 construct: human FIP200 claw domain1490–1594 was cloned; SUMO (N, cleaved yes); made in house; host or cells: Escherichia coli Rosetta (DE3)
Method: as §1, §2

[6] = target: T6, FIP200 claw domain F1582A (Homo sapiens, UniProt Q8TDY2, F1582A); assay: ITC with FIP200 claw domain mutant F1582A; details: 20 °C, buffer B pH 7.0, N.D. = no detectable binding
T6 construct: human FIP200 claw domain1490–1594 was cloned; SUMO (N, cleaved yes); made in house; host or cells: Escherichia coli Rosetta (DE3)
Method: as §1, §2

[7] = target: T7, FIP200 claw domain R1573E (Homo sapiens, UniProt Q8TDY2, R1573E); assay: ITC with FIP200 claw domain mutant R1573E; details: 20 °C, buffer B pH 7.0, N.D. = no detectable binding
T7 construct: human FIP200 claw domain1490–1594 was cloned; SUMO (N, cleaved yes); made in house; host or cells: Escherichia coli Rosetta (DE3)
Method: as §1, §2

TNIP1_pS123 peptide = assay: ITC
[8] = target: T8, human FIP200 claw domain (1490-1594) (human, UniProt Q8TDY2 1490-1594); assay: ITC
T8 chain: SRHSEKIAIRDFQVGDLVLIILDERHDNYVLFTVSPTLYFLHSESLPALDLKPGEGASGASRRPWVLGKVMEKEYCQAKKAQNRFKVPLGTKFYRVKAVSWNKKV

[9] = target: T9, FIP200 claw domain (1490-1594) (human, UniProt Q8TDY2 1490-1594); assay: ITC; peptide (4 mM) injected into FIP200 claw protein (0.25 mM); 20 °C; buffer B (50 mM NaH2PO4, 150 mM NaCl, pH 7.0); single binding site model
T9 construct: the ITC N counts peptide per claw chain; also called FIP200 claw domain WT; WT; source: E. coli Rosetta (DE3), purified (Ni-NTA, Superdex 200, HiTrap SP FF); not shown: SUMO, N-terminal, cleaved

[10] = target: T10, FIP200 claw domain (1490-1594) R1514A (human, UniProt Q8TDY2 1490-1594, R1514A); assay: as above; details: both partners purified
T10 construct: source: E. coli Rosetta (DE3), purified (Ni-NTA, Superdex 200, HiTrap SP FF); not shown: SUMO, N-terminal, cleaved

[11] = target: T11, FIP200 claw domain (1490-1594) Q1566A (human, UniProt Q8TDY2 1490-1594, Q1566A); assay: as above; details: both partners purified
T11 construct: source: E. coli Rosetta (DE3), purified (Ni-NTA, Superdex 200, HiTrap SP FF); not shown: SUMO, N-terminal, cleaved

[12] = target: T12, FIP200 claw domain (1490-1594) D1516A (human, UniProt Q8TDY2 1490-1594, D1516A); assay: as above; details: both partners purified
T12 construct: source: E. coli Rosetta (DE3), purified (Ni-NTA, Superdex 200, HiTrap SP FF); not shown: SUMO, N-terminal, cleaved

[13] = target: T13, FIP200 claw domain (1490-1594) K1568A (human, UniProt Q8TDY2 1490-1594, K1568A); assay: as above; details: both partners purified
T13 construct: source: E. coli Rosetta (DE3), purified (Ni-NTA, Superdex 200, HiTrap SP FF); not shown: SUMO, N-terminal, cleaved

[14] = target: the molecule itself; assay: crystal structure; FIP200 claw and TNIP1 FIR peptide mixed at a 1:5 molar ratio, 15 mg/ml; vapor diffusion at 16 °C or 20 °C; molecular replacement

T6 sequence (Q8TDY2 1490-1594 F1582A): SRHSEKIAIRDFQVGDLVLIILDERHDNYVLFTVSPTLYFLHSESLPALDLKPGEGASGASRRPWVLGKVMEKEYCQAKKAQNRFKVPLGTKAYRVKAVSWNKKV
T5 sequence (Q8TDY2 1490-1594 K1568A): as the sequence (Q8TDY2 1490-1594 F1582A) above, with K79A, A93F counted along it
T4 sequence (Q8TDY2 1490-1594 K1569A): as the sequence (Q8TDY2 1490-1594 F1582A) above, with K80A, A93F counted along it
T7 sequence (Q8TDY2 1490-1594 R1573E): as the sequence (Q8TDY2 1490-1594 F1582A) above, with R84E, A93F counted along it
T2 sequence (Q8TDY2 1490-1594 F1574A): as the sequence (Q8TDY2 1490-1594 F1582A) above, with F85A, A93F counted along it
T3 sequence (Q8TDY2 1490-1594 Y1564A): as the sequence (Q8TDY2 1490-1594 F1582A) above, with Y75A, A93F counted along it

Molecule: SSGTSSEFEVVTPEEQ [TNIP1^long, unmodified TNIP1 FIR peptide with an elongated C terminus]
a0 (constant of Equation 3, y1 = 1/(1+a0[TNIP1])) [1]: 0.0006 µM⁻¹
KD (FIP200 claw domain (WT)): Weak binding

Molecule: SSGTSSEFEVV [TNIP1]
KD (FIP200 claw domain (WT)): no detectable binding affinity

B1: TNIP1_pS123 peptide (peptide)
peptide: SSGTS[pS]EFEVV
notes: FIR motif of TNIP1; source: synthetic peptide (GL Biochem, Shanghai)
Kd [8]: 160 µM
stoichiometry N [9]: 1.01
Kd [10]: 178 µM
stoichiometry N [10]: 1.48
Kd [11]: 126 µM
stoichiometry N [11]: 1.49
Kd [12]: 175 µM
stoichiometry N [12]: 1.18

B3: TNIP1_pS123^long peptide (peptide)
peptide: SSGTS[pS]EFEVVTPEEQ
notes: FIR motif of TNIP1 with an elongated C terminus (T129-Q133); source: synthetic peptide (GL Biochem, Shanghai)
Kd ([9]; both partners purified): 45.4 µM
stoichiometry N ([9]; both partners purified): 1.03
Kd [10]: 43.8 µM
stoichiometry N [10]: 0.97
Kd [13]: 133 µM
stoichiometry N [13]: 0.93
Kd [11]: 45 µM
stoichiometry N [11]: 0.96
Kd [12]: 35 µM
stoichiometry N [12]: 0.98

B4: CCPG1 FIR2 peptide (unmodified) (peptide)
peptide: TASDDSDIVTLEPPK
notes: FIR2 motif of the autophagy receptor CCPG1; source: synthetic peptide (GL Biochem, Shanghai)
Kd ([9]; both partners purified): 84.3 µM
stoichiometry N ([9]; both partners purified): 0.96

B5: human FIP200 claw domain (1490-1594) (domain or fragment, UniProt Q8TDY2 1490-1594, looked up)
chain: T8 chain
notes: Forms a homodimer in the crystals; source: E. coli Rosetta (DE3), purified (Ni-NTA, Superdex 200, HiTrap SP FF); not shown: SUMO, N-terminal, cleaved
binding result [14]: binds

The remaining lines, values ahead:

KD [2]: significantly abolished
KD [3]: significantly abolished
KD [4]: significantly abolished
KD [5]: Weak binding
KD [6]: significantly abolished
KD [7]: significantly abolished
Molecule: CC(C)[C@H](NC(=O)[C@@H](NC(=O)[C@H](CCC(=O)O)NC(=O)[C@H](Cc1ccccc1)NC(=O)[C@H](CCC(=O)O)NC(=O)[C@H](COP(=O)(O)O)NC(=O)[C@H](CO)NC(=O)[C@@H](NC(=O)CNC(=O)[C@H](CO)NC(=O)[C@@H](N)CO)[C@@H](C)O)C(C)C)C(=O)O [TNIP1_pS123] (H-SSGTS[pS]EFEVV-OH)

ratio to parent (TNIP1_pS123 peptide): 0.79
Molecule: human FIP200 claw domain (1490-1594) (from UniProt Q8TDY2) Q1566A

Kd [8]: 260 µM
stoichiometry N [9]: 0.96
Molecule: SSGT[pS]SEFEVV [TNIP1_pS122 peptide]

Kd ([9]; both partners purified): 9.3 µM
stoichiometry N ([9]; both partners purified): 1.1
B2: pCCPG1 FIR2 peptide (peptide)
peptide: TASDD[pS]DIVTLEPPK
notes: as for B4

Kd [8]: 195 µM
stoichiometry N [9]: 1.33
Molecule: SSGT[pS][pS]EFEVV [TNIP1_pS122pS123 peptide]
